Measured values taken from patent publication US20240067758A1 (UCB, published 2024).
Substitutions are numbered along the chain they refer to. In names and notes the source's numbering stands.

T1: Human IL22 (human, UniProt Q9GZX6 34-179)
T1 construct: IL22 of the Biacore and cell assays
T1 sequence: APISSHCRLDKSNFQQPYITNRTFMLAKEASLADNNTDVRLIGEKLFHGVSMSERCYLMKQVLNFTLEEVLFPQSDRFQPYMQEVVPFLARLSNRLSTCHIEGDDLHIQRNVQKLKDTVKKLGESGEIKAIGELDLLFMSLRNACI

B1: 11041gL1 C91S gH1 D54E (Fab, V domains shown)
VH: EVQLVESGGGLVQPGGSLRLSCAVSGFSLSSYAMIWVRQAPGKGLEWIGIIDIEGSTYYASWAKGRFTISRDSSKNTVYLQMNSLRAEDTAVYYCARDRFVGVDIFDPWGQGTLVTVSS
VL: AVVLTQSPSSLSASVGDRVTITCQASEDIYTNLAWYQQKPGKAPKLLIYWASTLASGVPSRFSGSGSGTDFTLTISSLQPEDFATYYCQASVYGNSADSRYTFGGGTKVEIK
notes: V-regions only; also called 11041gL2gH3
B2: 11041gL6 C91S gH5 D54E (Fab, V domains shown)
VH: B1 VH with S73N
VL: B1 VL with V3Q
notes: also called 11041gL11gH14
B3: 11041gL6 C91S S96A gH8 D54E (Fab, V domains shown)
VH: B1 VH with V78L
VL: AVQLTQSPSSLSASVGDRVTITCQASEDIYTNLAWYQQKPGKAPKLLIYWASTLASGVPSRFSGSGSGTDFTLTISSLQPEDFATYYCQASVYGNAADSRYTFGGGTKVEIKR
notes: also called 11041gL13gH15
B4: 11041gL6 C91S gH11 D54E (Fab, V domains shown)
VH: B1 VH with I48V, S73N, V78L
VL: B1 VL with V3Q
notes: V-regions only; also called 11041gL11gH17
B5: 11041gL1 C91S gH9 (Fab, V domains shown)
VH: B1 VH with V24A, E54D
VL: B1 VL
notes: V-regions only; also called 11041gL2gH9
B6: 11041gL6 C91S gH12 D54E (Fab, V domains shown)
VH: B1 VH with G49S, S73N, V78L
VL: B1 VL with V3Q
notes: V-regions only; also called 11041gL11gH18
B7: 11041gL7 C91S S96A gH11 D54E (Fab, V domains shown)
VH: B1 VH with I48V, S73N, V78L
VL: B1 VL with V2I, V3Q, S96A
notes: V-regions only; also called 11041gL14gH17
B8: 11041gL1gH8 (Fab, V domains shown)
VH: B1 VH with E54D, V78L
VL: B1 VL with S91C
notes: V-regions only
B9: 11041gL7 C91S gH8 D54E (Fab, V domains shown)
VH: B1 VH with V78L
VL: B1 VL with V2I, V3Q
notes: V-regions only; also called 11041gL12gH15
B10: 11041gL1gH1 D54E (Fab, V domains shown)
VH: B1 VH
VL: B1 VL with S91C
notes: V-regions only; also called 11041gL1gH3
B11: 11041gL1 S96A gH1 (Fab, V domains shown)
VH: B1 VH with E54D
VL: B1 VL with S91C, S96A
notes: V-regions only; also called 11041gL9gH1
B12: 11041gL1 C91S S96AgH17 (Fab, V domains shown)
VH: B1 VH with I48V, S73N, V78L
VL: B1 VL with S96A
notes: V-regions only; also called 11041gL10gH17; gH17 = gH11 D54E
B13: 11041gL7 C91S gH11 D54E (Fab, V domains shown)
VH: B1 VH with I48V, S73N, V78L
VL: B1 VL with V2I, V3Q
notes: V-regions only; also called 11041gL12gH17
B14: 11041gL1gH1 G55A (Fab, V domains shown)
VH: B1 VH with E54D, G55A
VL: B1 VL with S91C
notes: V-regions only; also called 11041gL1gH2
B15: 11041gL1 N95D gH1 (Fab, V domains shown)
VH: B1 VH with E54D
VL: B1 VL with S91C, N95D
notes: V-regions only; also called 11041gL8gH1
B16: 11041gL1 C91S S96AgH18 (Fab, V domains shown)
VH: B1 VH with G49S, S73N, V78L
VL: B1 VL with S96A
notes: V-regions only; also called 11041gL10gH18; gH18 = gH12 D54E
B17: 11041gL7 C91S S96A gH12 D54E (Fab, V domains shown)
VH: B1 VH with G49S, S73N, V78L
VL: B1 VL with V2I, V3Q, S96A
notes: V-regions only; also called 11041gL14gH18
B18: 11041gL7 C91S S96A gH8 D54E (Fab, V domains shown)
VH: B1 VH with V78L
VL: B1 VL with V2I, V3Q, S96A
notes: V-regions only; also called 11041gL14gH15
B19: 11041gL1gH1 D107E (Fab, V domains shown)
VH: B1 VH with E54D, D107E
VL: B1 VL with S91C
notes: V-regions only; also called 11041gL1gH4
B20: 11041gL1 S96A gH1 D54E (Fab, V domains shown)
VH: B1 VH
VL: B1 VL with S91C, S96A
notes: V-regions only; also called 11041gL9gH3
B21: 11041gL6 C91S S96A gH11 D54E (Fab, V domains shown)
VH: B1 VH with I48V, S73N, V78L
VL: B3 VL
notes: also called 11041gL13gH17
B22: 11041gL6gH1 (Fab, V domains shown)
VH: B1 VH with E54D
VL: B1 VL with V3Q, S91C
notes: V-regions only
B23: 11041gL7 C91S S96A gH5 D54E (Fab, V domains shown)
VH: B1 VH with S73N
VL: B1 VL with V2I, V3Q, S96A
notes: also called 11041gL14gH14
B24: 11041gL1gH5 (Fab, V domains shown)
VH: B1 VH with E54D, S73N
VL: B1 VL with S91C
notes: V-regions only
B25: 11041gL1 C91S S96AgH15 (Fab, V domains shown)
VH: B1 VH with V78L
VL: B1 VL with S96A
notes: V-regions only; also called 11041gL10gH15; gH15 = gH8 D54E
B26: 11041gL6 C91S S96A gH12 D54E (Fab, V domains shown)
VH: B1 VH with G49S, S73N, V78L
VL: B3 VL
notes: also called 11041gL13gH18
B27: 11041gL6 C91S gH8 D54E (Fab, V domains shown)
VH: B1 VH with V78L
VL: B1 VL with V3Q
notes: V-regions only; also called 11041gL11gH15
B28: 11041gL1gH1 (Fab, V domains shown)
VH: B1 VH with E54D
VL: B1 VL with S91C
notes: Human Fab format (human kappa, human gamma-1 CH1); V-regions only
B29: 11041gL7 C91S gH12 D54E (Fab, V domains shown)
VH: B1 VH with G49S, S73N, V78L
VL: B1 VL with V2I, V3Q
notes: V-regions only; also called 11041gL12gH18
B30: 11041gL1 C91S S96A gH5 D54E (Fab, V domains shown)
VH: B1 VH with S73N
VL: B1 VL with S96A
notes: heavy chain is the gH5 D54E (gH14) Fab heavy chain; also called 11041gL10gH14
B31: 11041gL7 C91S gH5 D54E (Fab, V domains shown)
VH: B1 VH with S73N
VL: B1 VL with V2I, V3Q
notes: also called 11041gL12gH14
B32: 11041gL7gH1 (Fab, V domains shown)
VH: B1 VH with E54D
VL: B1 VL with V2I, V3Q, S91C
notes: V-regions only

Each binder was assayed against T1, Human IL22 (assay: SPR (Biacore); Fab variant, human IL22).

Binder	Kd [pM]
B1	28.1
B2	16.1
B3	84.9
B4	51.6
B5	11.4
B6	44.4
B7	61.7
B8	274
B9	115
B10	166
B11	200
B12	39.8
B13	66.6
B14	627
B15	129
B16	45.4

Binder	Kd [pM]
B17	67.6
B18	104
B19	657
B20	88.8
B21	52.4
B22	369
B23	26.6
B24	378
B25	79
B26	51.7
B27	106
B28	642
B29	73.9
B30	23.3
B31	29.3
B32	446
